Measurements from patent US20160304608A1 (published 2016).

Experiments:
human FcRn (hFcRn) [1] = target: T1, human FcRn (hFcRn) (human, UniProt P55899 24-297; P16213 21-119, limits assumed); test: SPR (Biacore 3000), antibody amine-coupled on CM5, hFcRn analyte, pH 7.5, 25 C, 1:1 model
T1 construct: hFcRn was the soluble analyte in SPR; also called FcRn analyte

human FcRn (hFcRn) [2] = target: T1, human FcRn (hFcRn); test: SPR (Biacore 3000), antibody amine-coupled on CM5, hFcRn analyte, pH 6.0, 25 C, 1:1 model
Procedure: SPR measurements were performed using a Biacore 3000. […] The sensor chip surface was regenerated with a 30 sec pulse of 10 mM glycine pH 1.5 at a flow rate of […] followed by a 15 second pulse of buffer. Measurements were performed at 25° C. using HBS-P as the running buffer. The reference flow cell was activated and blocked in a mock amine coupling reaction. The data was fit to a 1:1 binding model using Biaevalution v.4.1 software.

| Kd (human FcRn (hFcRn) [1]) [nM] | koff (human FcRn (hFcRn) [1]) [s⁻¹] | kon (human FcRn (hFcRn) [1]) [M⁻¹ s⁻¹] | Kd (human FcRn (hFcRn) [2]) [nM] | koff (human FcRn (hFcRn) [2]) [s⁻¹] | kon (human FcRn (hFcRn) [2]) [M⁻¹ s⁻¹] | Binder |
| --- | --- | --- | --- | --- | --- | --- |
| 1.9 | 0.00028 | 150000 | 1.5 | 0.00035 | 240000 | DX-2504 anti-FcRn antibody (antibody, human IgG1, lambda, It was immobilized by amine coupling in the SPR assay) heavy: not shown light: QSALTQPASVSGSPGQSITISCTGTGSDVGSYNLVSWYQQHPGKAPKLMIYGDSQRPSGVSNRFSGSKSGNTASLTISGLQAEDEADYYCCSYAGSGIYVFGTGTKVTVLGQPKANPTVTLFPPSSEELQANKATLVCLISDFYPGAVTVAWKADGSPVKAGVETTKPSKQSNNKYAASSYLSLTPEQWKSHRSYSCQVTHEGSTVEKTVAPTECS |
| 2 |  | 110000 | 1.8 |  |  | 532A-X54-B03 (cys to ala mutant of DX-2504) (antibody, V domains shown, also called 532-X54-B03; 532A-X53-B03) VH: EVQLLESGGGLVQPGGSLRLSCAASGFTFSEYAMGWVRQAPGKGLEWVSSIGSSGGQTKYADSVKGRFTISRDNSKNTLYLQMNSLRAEDTAVYYCARLAIGDSYWGQGTMVTVSS VL: QSALTQPASVSGSPGQSITISCTGTGSDVGSYNLVSWYQQHPGKAPKLMIYGDSQRPSGVSNRFSGSKSGNTASLTISGLQAEDEADYYCASYAGSGIYVFGTGTKVTVL |
| 1.7 | 0.00032 | 190000 | 1.4 | 0.00043 | 310000 | 532A-X53-C02 (cys to ser mutant of DX-2504) (antibody, V domains shown, also called C54-C02) VH: EVQLLESGGGLVQPGGSLRLSCAASGFTFSEYAMGWVRQAPGKGLEWVSSIGSSGGQTKYADSVKGRFTISRDNSKNTLYLQMNSLRAEDTAVYYCARLAIGDSYWGQGTMVTVSS VL: QSALTQPASVSGSPGQSITISCTGTGSDVGSYNLVSWYQQHPGKAPKLMIYGDSQRPSGVSNRFSGSKSGNTASLTISGLQAEDEADYYCSSYAGSGIYVFGTGTKVTVL |
